B1: 374_C03 (antibody, V domains shown)
VH: EVQLLESGGGLVQPGGSLRLSCAASGFTFDSYSMNWVRQAPGKGLEWVSGINYNSGYTSYADSVKGRFTISRDNSKNTLYLQMNSLRAEDTAVYYCARSANWHDTALDYWGQGTLVTVSS
VL: DIQMTQSPSSLSASVGDRVTITCRASQSILTYLNWYQQKPGKAPKLLIYAATSRASGVPSRFSGSGSGTDFTLTISSLQPEDFATYYCQQSYDSPLTFGGGTKVEIK
B2: 374_C06 (antibody, V domains shown)
VH: B1 VH with S31D, G50S, T58K, S59G
VL: B1 VL with L33V, D93N
B3: 374_E01 (antibody, V domains shown)
VH: B1 VH with D30S, S33G, S49A, S55G
VL: B1 VL with L30S, T31S, L33V, D93S, S94T
B4: 374_D08 (antibody, V domains shown)
VH: B1 VH with S33G, S59G, A106H
VL: B1 VL with A55H, D93E
B5: 374_D01 (antibody, V domains shown)
VH: B1 VH with T58K, S59G
VL: B1 VL with L30I, L33V, R54L, D93S
B6: 374_A03 (antibody, V domains shown)
VH: B1 VH with G50N, S55G, N101T, A106H
VL: B1 VL with S94N
notes: VH and VL only
B7: 365_H04 (antibody, V domains shown)
VH: B1 VH with D30S, S31D, S33G, T58K, N101T, A106H
VL: B1 VL with L33V, L47V, D93E
notes: VH and VL only
B8: 367_G08 (antibody, V domains shown)
VH: B1 VH with S33G, G50N, S55G, T58K, S59G, N101T, A106H
VL: B1 VL with T31S, D93E, S94N
notes: VH and VL only
B9: 369_A01 (antibody, V domains shown)
VH: B1 VH with T58K, S59G, N101T, A106H
VL: B1 VL with L33V, L47V, R54L, D93E, S94L
notes: VH and VL only
B10: 366_E03 (antibody, V domains shown)
VH: B1 VH with S33G, G50N, S55G, T58K, N101T, A106H
VL: B1 VL with L47V, A55H, D93S, S94N
notes: VH and VL only
B11: 366_C03 (antibody, V domains shown)
VH: B1 VH with S33G, G50N, S55G, S59G, N101T, A106H
VL: B1 VL with T31S, L47V, D93S, S94N
notes: VH and VL only
B12: 367_A11 (antibody, V domains shown)
VH: B1 VH with D30S, S33G, N35H, S55G, N101T, A106H
VL: B1 VL with T31S, L33V, L47V, A51T, R54L, D93N
notes: VH and VL only
B13: 368_G07 (antibody, V domains shown)
VH: B1 VH with D30S, N35H, G50S, S55G, N101T, A106H
VL: B1 VL with L30V, T31S, L33V, L47V, S94T
notes: VH and VL only
B14: 365_E08 (antibody, V domains shown)
VH: B1 VH with N101T, A106H
VL: B1 VL with L30I, T31S, L33V, L47V, R54L, S94L
notes: VH and VL only
B15: 365_H09 (antibody, V domains shown)
VH: B1 VH with D30S, S33G, G50S, T58K, N101T, A106H
VL: not shown
notes: VH and VL only
B16: 369_A06 (antibody, V domains shown)
VH: B1 VH with D30S, S31D, S33G, G50N, S55G, S59G, N101T, A106H
VL: B1 VL with T31S, L33V, R54L, S94L
notes: VH and VL only
B17: 366_E02 (antibody, V domains shown)
VH: B1 VH with D30S, T58K, S59G, N101T, A106H
VL: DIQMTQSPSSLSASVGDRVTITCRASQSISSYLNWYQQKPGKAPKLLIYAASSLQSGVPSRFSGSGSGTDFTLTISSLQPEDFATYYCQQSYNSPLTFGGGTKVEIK
notes: VH and VL only
B18: 367_F12 (antibody, V domains shown)
VH: B1 VH with S31D, G50N, T58K, S59G, N101T, A106H
VL: not shown
notes: VH and VL only
B19: 366_C07 (antibody, V domains shown)
VH: B1 VH with D30S, G50N, S55G, N101T, A106H
VL: B1 VL with L33V, D93N
notes: VH and VL only
B20: 368_G08 (antibody, V domains shown)
VH: B1 VH with S31D, S33G, G50S, T58K, N101T, A106H
VL: B1 VL with L30V, T31S, L33V, A55H, D93N, S94N
notes: VH and VL only
B21: 367_D02 (antibody, V domains shown)
VH: B1 VH with S31D, G50N, S55G, N101T, A106H
VL: B1 VL with L30V, L33V, D93E, S94N
notes: VH and VL only
B22: 365_A04 (antibody, V domains shown)
VH: B1 VH with D30S, S31D, N101T, A106H
VL: B1 VL with L30V, T31S, L33V, L47V, R54L, D93S, S94T
notes: VH and VL only
B23: 365_G02 (antibody, V domains shown)
VH: B1 VH with D30S, S31D, G50N, T58K, S59G, N101T, A106H
VL: B1 VL with L30V, L47V, A51V, R54L, A55H, D93E, S94L
notes: VH and VL only
B24: 367_H04 (antibody, V domains shown)
VH: B1 VH with D30S, G50S, S55G, N101T, A106H
VL: B1 VL with L33V, A55H, Y92D, D93N, S94N
notes: VH and VL only
B25: 368_B05 (antibody, V domains shown)
VH: B1 VH with G50S, S59G, N101T, A106H
VL: not shown
notes: VH and VL only
B26: 365_A02 (antibody, V domains shown)
VH: B1 VH with G50N, S55G, N101T, A106H
VL: B1 VL with L33V, D93N
notes: VH and VL only
B27: 365_D06 (antibody, V domains shown)
VH: B1 VH with G50N, S55G, N101T, A106H
VL: B1 VL with L33V, D93S, S94L
notes: VH and VL only
B28: 366_F06 (antibody, V domains shown)
VH: B1 VH with D30S, S31D, S33G, G50S, S55G, N101T, A106H
VL: B1 VL with L30S, R54L, D93S, S94N
notes: VH and VL only
B29: 365_E03 (antibody, V domains shown)
VH: B1 VH with G50N, S55G, S59G, N101T, A106H
VL: B1 VL with L33V, R54L, A55H, Y92D, D93E, S94R
notes: VH and VL only

Positions count from the first letter of the chain named.
Note: test concentration or dose not given here.

mouse ACVR2A, sequence (P27038 20-135 limits assumed): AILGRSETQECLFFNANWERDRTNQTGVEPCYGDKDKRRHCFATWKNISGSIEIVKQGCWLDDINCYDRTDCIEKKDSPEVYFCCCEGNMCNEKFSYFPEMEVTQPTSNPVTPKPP
Mouse ACVR2A, sequence (P27038 20-135 limits assumed): as above

In the first experiment the target is T1, Human ACVR2A (human, UniProt P27037 20-135, limits assumed).
T1 construct: also called activin receptor, type II A
T1 sequence (P27037 20-135 limits assumed): as the sequence (P27038 20-135 limits assumed) above, with R20K, I73V counted along it
Put plainly: ELISA. The method, boiled down: (§1)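 mAb binding by ELISA; antigens: hu ACVR2A, mu ACVR2A; pos ctrl biotinylated goat anti-hu kappa LC; neg ctrl hu Fc.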
(In general: ELISA stands for enzyme-linked immunosorbent assay.)
For B1, the optical density came out at 3.58 OD.
B2 came in with an optical density of 3.71 OD.
On the same count and under the same terms, the result for B3 reads 3.24 OD.
In turn, B4 came in with an optical density of 3.5 OD.
Consider B5, for which the optical density stood at 3.24 OD.

A further experiment addresses Mouse ACVR2A (mouse, UniProt P27038 20-135, limits assumed). Nature of the experiment: ELISA. An outline of the steps:
as §1
B1: the optical density was determined as 3.61 OD.
The molecule B2 returned an optical density of 3.71 OD.
Still for that read-out and setting: the figure for B3 is 3.56 OD; for B4 it is 3.59 OD; for B5 it is 3.58 OD.

In the next experiment the target is T2, human ACVR2A (human, UniProt P27037 20-135, limits assumed).
T2 construct: also called activin receptor, type II A
T2 sequence (P27037 20-135 limits assumed): as the sequence (P27038 20-135 limits assumed) above, with R20K, I73V counted along it
Put plainly: ELISA. An outline of the steps:
as §1
With B6, the optical density came out at 3.58 OD.
Regarding B7, the optical density was 2.47 OD.
For B8, the optical density was 2.69 OD.
Turning to B9, the optical density came out at 3.6 OD.
In the case of B10, the optical density was 2.55 OD.
Molecule B11 displayed an optical density of 2.41 OD.
B12: the optical density amounted to 2.34 OD.
For the molecule B13, the optical density stood at 1.79 OD.
Still for that read-out and setting: the figure for B14 is 2.59 OD.
In turn, B15 returned an optical density of 2.38 OD.
In turn, B16 displayed an optical density of 2.89 OD.
Consider B17, for which the optical density amounted to 2.26 OD.
In turn, B18 came in with an optical density of 2.38 OD.
Consider B19, for which the optical density worked out at 3.02 OD.
The molecule B20 gave an optical density of 1.6 OD.
On the same count and under the same terms, the figure for B21 is 2.46 OD.
In turn, B22 yielded an optical density of 1.49 OD.
In turn, B23 came in with an optical density of 1.98 OD.
Regarding B24, the optical density is 1.62 OD.
Consider B25, for which the optical density amounted to 1.73 OD.
The molecule B26 gave an optical density of 3.03 OD.
Turning to B27, the optical density turned out to be 2.95 OD.
In turn, B28 registered an optical density of 1.87 OD.
In turn, B29 came in with an optical density of 2.56 OD.

The next experiment has as its target mouse ACVR2A (mouse, UniProt P27038 20-135, limits assumed). Nature of the experiment: ELISA. An outline of the steps: as §1
B6 yielded an optical density of 3.71 OD.
Same read-out and setting: the result for B7 reads 2.59 OD; that for B8, 2.78 OD; that for B9, 3.66 OD.
Molecule B10 returned an optical density of 2.72 OD.
Take B11: the optical density was 2.74 OD.
As for B12, the optical density stood at 2.52 OD.
As to B13, the optical density amounted to 2.05 OD.
Molecule B14 yielded an optical density of 2.58 OD.
Molecule B15 had an optical density of 2.56 OD.
Turning to B16, the optical density stood at 3.01 OD.
In turn, B17 returned an optical density of 2.58 OD.
In turn, B18 displayed an optical density of 2.29 OD.
For the molecule B19, the optical density came out at 3.06 OD.
Regarding B20, the optical density stood at 1.75 OD.
B21 displayed an optical density of 2.46 OD.
Consider B22, for which the optical density amounted to 1.41 OD.
In turn, B23 showed an optical density of 2.15 OD.
With B24, the optical density amounted to 1.85 OD.
Still for that read-out and setting: the figure for B25 is 1.75 OD; for B26 it is 2.96 OD.
In the case of B27, the optical density was 3.08 OD.
Still for that read-out and setting: the figure for B28 is 2.15 OD.
Molecule B29 gave an optical density of 2.69 OD.

The target of the next experiment is T3, Goat anti-Human Kappa.
T3 construct: Positive control of the ELISA; also called biotinylated goat anti-human kappa light chain
Put plainly: ELISA, positive control. An outline of the steps:
as §1
Take B1: the optical density worked out at 3.06 OD.
Same read-out and setting: the result for B2 reads 3.24 OD.
Consider B3, for which the optical density is 3.04 OD.
On the same count and under the same terms, the figure for B4 is 3.02 OD.
Still for that read-out and setting: the result for B5 reads 2.94 OD.

The target of another experiment is T4, biotinylated goat anti-human kappa light chain.
T4 construct: Positive control of the ELISA
Nature of the experiment: ELISA, positive control. The method, boiled down:
as §1
For the molecule B6, the optical density is 3.05 OD.
Regarding B7, the optical density was found to be 3.5 OD.
The same measure, in the same setting: the figure for B8 is 3.32 OD; for B9 it is 3.55 OD; for B10 it is 3.54 OD.
In the case of B11, the optical density worked out at 3.55 OD.
Take B12: the optical density came out at 3.61 OD.
On the same count and under the same terms, the figure for B13 is 3.16 OD; for B14 it is 3.33 OD; for B15 it is 3.53 OD.
The molecule B16 yielded an optical density of 3.32 OD.
Molecule B17 gave an optical density of 3.46 OD.
The molecule B18 showed an optical density of 3.6 OD.
B19 yielded an optical density of 3.37 OD.
Same read-out and setting: the figure for B20 is 3.29 OD.
Regarding B21, the optical density was found to be 3.46 OD.
With B22, the optical density was found to be 3.28 OD.
Still for that read-out and setting: the figure for B23 is 3.45 OD; for B24 it is 3.4 OD; for B25 it is 3.26 OD.
In turn, B26 gave an optical density of 3.49 OD.
As for B27, the optical density was 3.42 OD.
In turn, B28 came in with an optical density of 3.44 OD.
Still for that read-out and setting: the result for B29 reads 3.33 OD.
